Test results: paper doi:10.1101/2024.09.06.611628 (bioRxiv, 2024)

Target: T1, CATCH(-) peptide
T1 peptide: Ac-EQEFEFEFEQE-NH2
Assay: gelation on mixing

Ac-QQKFKFKFKQQ-NH2 [CATCH(+) peptide]: binds.
